The test system of the experiment is genomic CAN1 gene. The experiment in a line: Fluctuation tests of the genomic CAN1 gene (POL3 mutator strains). The settings on record: genomic mutation rate. The class given is cell-based, S. cerevisiae. The protocol: To construct POL3 mutator strains, plasmids were transformed into AH22 encoding wild-type POL3 on a URA3 plasmid or Δmsh6 AH22 encoding wild-type POL3 on a URA3 plasmid. Transformants were expanded in selective SC medium and spot plated on selective SC medium or selective SC medium supplemented with 5-FOA (1 g/L) for plasmid shuffle of the plasmid encoding wild-type POL3 via URA3 counter-selection (Boeke et al., 1984).
Fluctuation tests of the genomic CAN1 gene were performed to determine genomic per-base substitution rates. To minimize propagation of POL3 mutator strains, fluctuation tests were performed directly on colonies from plasmid shuffle plates. For each strain, 48 colonies from plasmid shuffle plates were individually scraped and resuspended in 120 μL 0.9% NaCl. 10 μL from each resuspension was diluted and subject to an event counts measurement via flow cytometry. This was done to identify colonies of similar cell count, because fluctuation tests are only appropriate when final population sizes for all replicates are similar. 24 resuspensions with similar event counts were used for fluctuation tests. […] Colonies were counted from titer plates after 2-4 days and from spot plates after 3-6 days. […]
Fluctuation data were analyzed as described above for URA3 fluctuation data, but with mutation frequency parameters for CAN1 (Lang et al., 2008). […]

B1: pol3-01: proofreading deficient pol3-01 allele encodes POL3 (D321A, E323A) (protein, UniProt P15436 1-1097, looked up, variant D321A E323A)
DNA polymerase delta …: MSEKRSLPMVDVKIDDEDTPQLEKKIKRQSIDHGVGSEPVSTIEIIPSDSFRKYNSQGFKAKDTDLMGTQLESTFEQELSQMEHDMADQEEHDLSSFERKKLPTDFDPSLYDISFQQIDAEQSVLNGIKDENTSTVVRFFGVTSEGHSVLCNVTGFKNYLYVPAPNSSDANDQEQINKFVHYLNETFDHAIDSIEVVSKQSIWGYSGDTKLPFWKIYVTYPHMVNKLRTAFERGHLSFNSWFSNGTTTYDNIAYTLRLMVDCGIVGMSWITLPKGKYSMIEPNNRVSSCQLEVSINYRNLIAHPAEGDWSHTAPLRIMSFAIACAGRIGVFPEPEYDPVIQIANVVSIAGAKKPFIRNVFTLNTCSPITGSMIFSHATEEEMLSNWRNFIIKVDPDVIIGYNTTNFDIPYLLNRAKALKVNDFPYFGRLKTVKQEIKESVFSSKAYGTRETKNVNIDGRLQLDLLQFIQREYKLRSYTLNAVSAHFLGEQKEDVHYSIISDLQNGDSETRRRLAVYCLKDAYLPLRLMEKLMALVNYTEMARVTGVPFSYLLARGQQIKVVSQLFRKCLEIDTVIPNMQSQASDDQYEGATVIEPIRGYYDVPIATLDFNSLYPSIMMAHNLCYTTLCNKATVERLNLKIDEDYVITPNGDYFVTTKRRRGILPIILDELISARKRAKKDLRDEKDPFKRDVLNGRQLALKISANSVYGFTGATVGKLPCLAISSSVTAYGRTMILKTKTAVQEKYCIKNGYKHDAVVVYGDTDSVMVKFGTTDLKEAMDLGTEAAKYVSTLFKHPINLEFEKAYFPYLLINKKRYAGLFWTNPDKFDKLDQKGLASVRRDSCSLVSIVMNKVLKKILIERNVDGALAFVRETINDILHNRVDISKLIISKTLAPNYTNPQPHAVLAERMKRREGVGPNVGDRVDYVIIGGNDKLYNRAEDPLFVLENNIQVDSRYYLTNQLQNPIISIVAPIIGDKQANGMFVVKSIKINTGSQKGGLMSFIKKVEACKSCKGPLRKGEGPLCSNCLARSGELYIKALYDVRDLEEKYSRLWTQCQRCAGNLHSEVLCSNKNCDIFYMRVKVKKELQEKVEQLSKW
Molecule B1 returned a mutational increase of 58 fold.
